In paper PMC314469, “Protein Interaction Networks by Proteome Peptide Scanning” (PLoS Biology, 2004):

T1: Rvs167 SH3 (RV167_YEAST), P39743
T1 chain: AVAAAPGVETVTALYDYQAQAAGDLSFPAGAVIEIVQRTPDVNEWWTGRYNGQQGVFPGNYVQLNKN

T2: Yhr016c SH3 (YSC84_YEAST), P32793
T2 chain: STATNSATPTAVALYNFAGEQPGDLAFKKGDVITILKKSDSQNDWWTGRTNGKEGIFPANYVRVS

T3: Boi2 SH3 (BOI2_YEAST), P39969
T3 chain: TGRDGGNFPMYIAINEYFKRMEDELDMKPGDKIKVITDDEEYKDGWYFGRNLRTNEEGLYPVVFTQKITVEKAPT

T4: Yfr024 SH3 (LSB3_YEAST), P43603
T4 chain: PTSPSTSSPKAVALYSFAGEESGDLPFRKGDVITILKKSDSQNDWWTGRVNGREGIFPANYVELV

T5: Boi1 SH3 (BOI1_YEAST), P38041
T5 chain: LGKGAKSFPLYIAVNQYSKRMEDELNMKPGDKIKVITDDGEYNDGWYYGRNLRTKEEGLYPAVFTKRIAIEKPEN

T6: Myo5 SH3 (MYO5_YEAST), Q04439
T6 chain: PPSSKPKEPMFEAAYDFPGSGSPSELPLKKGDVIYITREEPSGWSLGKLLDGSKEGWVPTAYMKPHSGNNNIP


How the values were obtained:
Assay in all cases: SPOT array
[1] = molecular target: T1, Rvs167 SH3 (RV167_YEAST), P39743
[2] = molecular target: T2, Yhr016c SH3 (YSC84_YEAST), P32793
[3] = molecular target: T3, Boi2 SH3 (BOI2_YEAST), P39969
[4] = molecular target: T4, Yfr024 SH3 (LSB3_YEAST), P43603
[5] = molecular target: Sho1 SH3 (SHO1_YEAST), P40073
[6] = molecular target: T5, Boi1 SH3 (BOI1_YEAST), P38041
[7] = molecular target: T6, Myo5 SH3 (MYO5_YEAST), Q04439

Chain of Sho1 SH3 (SHO1_YEAST), P40073 (P40073 295-366): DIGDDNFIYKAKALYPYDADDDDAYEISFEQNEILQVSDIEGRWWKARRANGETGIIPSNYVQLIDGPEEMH

normalised SPOT signal, Boehringer light units (BLU); mean over the file's lines of this peptide [1] | normalised SPOT signal, Boehringer light units (BLU); mean over the file's lines of this peptide [2] | normalised SPOT signal, Boehringer light units (BLU); mean over the file's lines of this peptide [3] | normalised SPOT signal, Boehringer light units (BLU); mean over the file's lines of this peptide [4] | normalised SPOT signal, Boehringer light units (BLU); mean over the file's lines of this peptide [5] | normalised SPOT signal, Boehringer light units (BLU); mean over the file's lines of this peptide [6] | normalised SPOT signal, Boehringer light units (BLU); mean over the file's lines of this peptide [7] | Binder
17.6 | 34.5 | 0.8 | 562 | 29800 | 310 | 592 | KRRSKSLPTTPGIR [YER054C 189-202]
34 | 34.1 | 39.6 | 6.9 | 55.5 | 100 | 246 | KYIIKTEPESPEED [YLR133W 510-523]
95.8 | 32.1 | 23.8 | 44.7 | 31.3 | 127 | 434 | KVSSKYDPDNPNKD [YBR235W 48-61]
72.7 | 43.6 | 3.7 | 162 | 6.5 | 84.2 | 167 | KTSTKAQPAEPQAE [YNL071W 132-145]
56 | 9.6 | 0 | 94.7 | 29 | 78.2 | 103 | KSYRKADPTNPQGW [YBR055C 231-244]
39.9 | 27.5 | 5.4 | 62.6 | 46.8 | 613 | 343 | KSIPRTKPNVPPLQ [YDR466W 448-461]
200 | 8.7 | 0 | 180 | 49.9 | 457 | 496 | KVIRKGSPKSPAMV [YKL170W 23-36]
24.1 | 20.1 | 5 | 11.9 | 8310 | 14.3 | 76.8 | KTVDKGLPMIPTYV [YDR516C 56-69]
160 | 44.4 | 24.3 | 234 | 119 | 1120 | 503 | KVNFRRIPTGPDSP [YIL131C 136-149]
56.8 | 35 | 43.4 | 178 | 115 | 1200 | 262 | KTRNKPKPLWPQVK [YGR033C 56-69]
112 | 50.8 | 0 | 134 | 38.8 | 815 | 245 | KSLQKFEPRYPKTA [YMR014W 24-37]
44.5 | 13.5 | 64.7 | 9.9 | 28.2 | 1460 | 191 | KVQIKKVPTDPSSS [YBR136W 25-38]
44.3 | 38 | 67.6 | 179 | 34.1 | 1240 | 359 | KTKKKTVPVKPLQL [YBL017C 684-697]
84.2 | 0 | 5.4 | 251 | 3050 | 142 | 237 | KVLIKTLPVLPEAR [YNL271C 1679-1692]
56.2 | 26.1 | 29.6 | 171 | 140 | 129 | 466 | KTGRKTFPFLPYQI [YGL012W 364-377]
40.4 | 29.7 | 20 | 104 | 70.4 | 198 | 219 | KYSFKLVPPQPGSK [YBL085W 849-862]
